Among the data in US12679878B2, “CRF2 receptor agonists and their use in therapy” (SANOFI, priority 2020, dated 2026) are EC50 [nM], 0% HSA and EC50 [nM], 0.1% HSA values, retold here.

The target of this test is human corticotropin-releasing factor 2α (CRF2 α receptor) (human), Q13324. The experiment in a line: cell-based or functional assay.

Starred links: 1 amine or outer side, 2 acyl side, 3 side chain; linkers in the order of their positions; H or OH if unused. Non-standard residues stand in square brackets, D forms with d. Groups on a side chain read outwards from the residue. No end group written: not given here. *: point of attachment. C18 diacid = O=C(O)CCCCCCCCCCCCCCCCC(=O)*; γGlu = O=C(O)[C@H](CCC(=O)[*:2])N[*:1]; Palmitoyl = CCCCCCCCCCCCCCCC(=O)*; AEEA = NCCOCCOCC(=O)O; Aib = CC(C)(N)C(=O)O

human corticotropin-releasing factor 2α (CRF2 α receptor) (human), Q13324, sequence (Q13324 20-411): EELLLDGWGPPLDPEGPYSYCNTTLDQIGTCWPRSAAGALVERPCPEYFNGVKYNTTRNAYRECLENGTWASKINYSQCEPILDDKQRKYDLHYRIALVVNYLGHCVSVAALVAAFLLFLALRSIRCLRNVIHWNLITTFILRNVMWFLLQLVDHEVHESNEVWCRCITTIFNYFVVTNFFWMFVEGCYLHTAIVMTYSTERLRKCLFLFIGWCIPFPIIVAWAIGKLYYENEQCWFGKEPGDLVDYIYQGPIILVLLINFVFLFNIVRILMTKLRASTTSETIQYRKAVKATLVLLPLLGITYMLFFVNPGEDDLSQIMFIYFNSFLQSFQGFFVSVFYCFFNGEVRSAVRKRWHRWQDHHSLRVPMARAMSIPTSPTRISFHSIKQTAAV

B1: SEQ ID NO: 152 (peptide)
peptide: IVLSLDVPIKLK([AEEA-AEEA-γGlu-C18 diacid])QILLKQERQKK[Aib]REQAETNKRILERV-NH2
modifications: N-terminus assumed
SMILES: CC[C@H](C)[C@H](N)C(=O)N[C@H](C(=O)N[C@@H](CC(C)C)C(=O)N[C@@H](CO)C(=O)N[C@@H](CC(C)C)C(=O)N[C@@H](CC(=O)O)C(=O)N[C@H](C(=O)N1CCC[C@H]1C(=O)N[C@H](C(=O)N[C@@H](CCCCN)C(=O)N[C@@H](CC(C)C)C(=O)N[C@@H](CCCCNC(=O)COCCOCCNC(=O)COCCOCCNC(=O)CC[C@H](NC(=O)CCCCCCCCCCCCCCCCC(=O)O)C(=O)O)C(=O)N[C@@H](CCC(N)=O)C(=O)N[C@H](C(=O)N[C@@H](CC(C)C)C(=O)N[C@@H](CC(C)C)C(=O)N[C@@H](CCCCN)C(=O)N[C@@H](CCC(N)=O)C(=O)N[C@@H](CCC(=O)O)C(=O)N[C@@H](CCCNC(=N)N)C(=O)N[C@@H](CCC(N)=O)C(=O)N[C@@H](CCCCN)C(=O)N[C@@H](CCCCN)C(=O)NC(C)(C)C(=O)N[C@@H](CCCNC(=N)N)C(=O)N[C@@H](CCC(=O)O)C(=O)N[C@@H](CCC(N)=O)C(=O)N[C@@H](C)C(=O)N[C@@H](CCC(=O)O)C(=O)N[C@H](C(=O)N[C@@H](CC(N)=O)C(=O)N[C@@H](CCCCN)C(=O)N[C@@H](CCCNC(=N)N)C(=O)N[C@H](C(=O)N[C@@H](CC(C)C)C(=O)N[C@@H](CCC(=O)O)C(=O)N[C@@H](CCCNC(=N)N)C(=O)N[C@H](C(N)=O)C(C)C)[C@@H](C)CC)[C@@H](C)O)[C@@H](C)CC)[C@@H](C)CC)C(C)C)C(C)C
Turning to B1, the EC50 [nM], 0% HSA is 0.09 nM and the EC50 [nM], 0.1% HSA came to 4.94 nM.

B2: SEQ ID NO: 155 (peptide)
peptide: IVLSLDVPIGLK([AEEA-AEEA-γGlu-C18 diacid])QILLEQEKQEKEKQQAEKNKRILERV-NH2
modifications: N-terminus assumed
SMILES: CC[C@H](C)[C@H](N)C(=O)N[C@H](C(=O)N[C@@H](CC(C)C)C(=O)N[C@@H](CO)C(=O)N[C@@H](CC(C)C)C(=O)N[C@@H](CC(=O)O)C(=O)N[C@H](C(=O)N1CCC[C@H]1C(=O)N[C@H](C(=O)NCC(=O)N[C@@H](CC(C)C)C(=O)N[C@@H](CCCCNC(=O)COCCOCCNC(=O)COCCOCCNC(=O)CC[C@H](NC(=O)CCCCCCCCCCCCCCCCC(=O)O)C(=O)O)C(=O)N[C@@H](CCC(N)=O)C(=O)N[C@H](C(=O)N[C@@H](CC(C)C)C(=O)N[C@@H](CC(C)C)C(=O)N[C@@H](CCC(=O)O)C(=O)N[C@@H](CCC(N)=O)C(=O)N[C@@H](CCC(=O)O)C(=O)N[C@@H](CCCCN)C(=O)N[C@@H](CCC(N)=O)C(=O)N[C@@H](CCC(=O)O)C(=O)N[C@@H](CCCCN)C(=O)N[C@@H](CCC(=O)O)C(=O)N[C@@H](CCCCN)C(=O)N[C@@H](CCC(N)=O)C(=O)N[C@@H](CCC(N)=O)C(=O)N[C@@H](C)C(=O)N[C@@H](CCC(=O)O)C(=O)N[C@@H](CCCCN)C(=O)N[C@@H](CC(N)=O)C(=O)N[C@@H](CCCCN)C(=O)N[C@@H](CCCNC(=N)N)C(=O)N[C@H](C(=O)N[C@@H](CC(C)C)C(=O)N[C@@H](CCC(=O)O)C(=O)N[C@@H](CCCNC(=N)N)C(=O)N[C@H](C(N)=O)C(C)C)[C@@H](C)CC)[C@@H](C)CC)[C@@H](C)CC)C(C)C)C(C)C
B2 registered an EC50 [nM], 0% HSA of 8.87 nM.

B3: SEQ ID NO: 156 (peptide)
peptide: IVLSLDVPIGLK([AEEA-AEEA-γGlu-C18 diacid])QILLKQERQKK[Aib]REQAETNAQILAQV-NH2
modifications: N-terminus assumed
SMILES: CC[C@H](C)[C@H](N)C(=O)N[C@H](C(=O)N[C@@H](CC(C)C)C(=O)N[C@@H](CO)C(=O)N[C@@H](CC(C)C)C(=O)N[C@@H](CC(=O)O)C(=O)N[C@H](C(=O)N1CCC[C@H]1C(=O)N[C@H](C(=O)NCC(=O)N[C@@H](CC(C)C)C(=O)N[C@@H](CCCCNC(=O)COCCOCCNC(=O)COCCOCCNC(=O)CC[C@H](NC(=O)CCCCCCCCCCCCCCCCC(=O)O)C(=O)O)C(=O)N[C@@H](CCC(N)=O)C(=O)N[C@H](C(=O)N[C@@H](CC(C)C)C(=O)N[C@@H](CC(C)C)C(=O)N[C@@H](CCCCN)C(=O)N[C@@H](CCC(N)=O)C(=O)N[C@@H](CCC(=O)O)C(=O)N[C@@H](CCCNC(=N)N)C(=O)N[C@@H](CCC(N)=O)C(=O)N[C@@H](CCCCN)C(=O)N[C@@H](CCCCN)C(=O)NC(C)(C)C(=O)N[C@@H](CCCNC(=N)N)C(=O)N[C@@H](CCC(=O)O)C(=O)N[C@@H](CCC(N)=O)C(=O)N[C@@H](C)C(=O)N[C@@H](CCC(=O)O)C(=O)N[C@H](C(=O)N[C@@H](CC(N)=O)C(=O)N[C@@H](C)C(=O)N[C@@H](CCC(N)=O)C(=O)N[C@H](C(=O)N[C@@H](CC(C)C)C(=O)N[C@@H](C)C(=O)N[C@@H](CCC(N)=O)C(=O)N[C@H](C(N)=O)C(C)C)[C@@H](C)CC)[C@@H](C)O)[C@@H](C)CC)[C@@H](C)CC)C(C)C)C(C)C
As for B3, the EC50 [nM], 0% HSA is 1.06 nM.

B4: SEQ ID NO: 153 (peptide)
peptide: Ac-IVLSLDVPIGLK([AEEA-AEEA-γGlu-C18 diacid])QILLEQEKQEKEKQQAETNAQILAQV-NH2
SMILES: CC[C@H](C)[C@H](NC(C)=O)C(=O)N[C@H](C(=O)N[C@@H](CC(C)C)C(=O)N[C@@H](CO)C(=O)N[C@@H](CC(C)C)C(=O)N[C@@H](CC(=O)O)C(=O)N[C@H](C(=O)N1CCC[C@H]1C(=O)N[C@H](C(=O)NCC(=O)N[C@@H](CC(C)C)C(=O)N[C@@H](CCCCNC(=O)COCCOCCNC(=O)COCCOCCNC(=O)CC[C@H](NC(=O)CCCCCCCCCCCCCCCCC(=O)O)C(=O)O)C(=O)N[C@@H](CCC(N)=O)C(=O)N[C@H](C(=O)N[C@@H](CC(C)C)C(=O)N[C@@H](CC(C)C)C(=O)N[C@@H](CCC(=O)O)C(=O)N[C@@H](CCC(N)=O)C(=O)N[C@@H](CCC(=O)O)C(=O)N[C@@H](CCCCN)C(=O)N[C@@H](CCC(N)=O)C(=O)N[C@@H](CCC(=O)O)C(=O)N[C@@H](CCCCN)C(=O)N[C@@H](CCC(=O)O)C(=O)N[C@@H](CCCCN)C(=O)N[C@@H](CCC(N)=O)C(=O)N[C@@H](CCC(N)=O)C(=O)N[C@@H](C)C(=O)N[C@@H](CCC(=O)O)C(=O)N[C@H](C(=O)N[C@@H](CC(N)=O)C(=O)N[C@@H](C)C(=O)N[C@@H](CCC(N)=O)C(=O)N[C@H](C(=O)N[C@@H](CC(C)C)C(=O)N[C@@H](C)C(=O)N[C@@H](CCC(N)=O)C(=O)N[C@H](C(N)=O)C(C)C)[C@@H](C)CC)[C@@H](C)O)[C@@H](C)CC)[C@@H](C)CC)C(C)C)C(C)C
In turn, B4 yielded an EC50 [nM], 0% HSA of 33.7 nM.

B5: SEQ ID NO: 154 (peptide)
peptide: IVLSLDVPIGLK([AEEA-AEEA-γGlu-C18 diacid])QILLEQEKQEKEKQQAETNKRILERV-NH2
modifications: N-terminus assumed
SMILES: CC[C@H](C)[C@H](N)C(=O)N[C@H](C(=O)N[C@@H](CC(C)C)C(=O)N[C@@H](CO)C(=O)N[C@@H](CC(C)C)C(=O)N[C@@H](CC(=O)O)C(=O)N[C@H](C(=O)N1CCC[C@H]1C(=O)N[C@H](C(=O)NCC(=O)N[C@@H](CC(C)C)C(=O)N[C@@H](CCCCNC(=O)COCCOCCNC(=O)COCCOCCNC(=O)CC[C@H](NC(=O)CCCCCCCCCCCCCCCCC(=O)O)C(=O)O)C(=O)N[C@@H](CCC(N)=O)C(=O)N[C@H](C(=O)N[C@@H](CC(C)C)C(=O)N[C@@H](CC(C)C)C(=O)N[C@@H](CCC(=O)O)C(=O)N[C@@H](CCC(N)=O)C(=O)N[C@@H](CCC(=O)O)C(=O)N[C@@H](CCCCN)C(=O)N[C@@H](CCC(N)=O)C(=O)N[C@@H](CCC(=O)O)C(=O)N[C@@H](CCCCN)C(=O)N[C@@H](CCC(=O)O)C(=O)N[C@@H](CCCCN)C(=O)N[C@@H](CCC(N)=O)C(=O)N[C@@H](CCC(N)=O)C(=O)N[C@@H](C)C(=O)N[C@@H](CCC(=O)O)C(=O)N[C@H](C(=O)N[C@@H](CC(N)=O)C(=O)N[C@@H](CCCCN)C(=O)N[C@@H](CCCNC(=N)N)C(=O)N[C@H](C(=O)N[C@@H](CC(C)C)C(=O)N[C@@H](CCC(=O)O)C(=O)N[C@@H](CCCNC(=N)N)C(=O)N[C@H](C(N)=O)C(C)C)[C@@H](C)CC)[C@@H](C)O)[C@@H](C)CC)[C@@H](C)CC)C(C)C)C(C)C
B5: the EC50 [nM], 0% HSA was determined as 15 nM and the EC50 [nM], 0.1% HSA was 15.3 nM.

B6: SEQ ID NO: 17 (peptide)
peptide: IVLSLDVPIKLK([γGlu-Palmitoyl])KILLEQEKQKKQREQAETNKQILAQV-NH2
modifications: N-terminus assumed
SMILES: CCCCCCCCCCCCCCCC(=O)N[C@@H](CCC(=O)NCCCC[C@H](NC(=O)[C@H](CC(C)C)NC(=O)[C@H](CCCCN)NC(=O)[C@@H](NC(=O)[C@@H]1CCCN1C(=O)[C@@H](NC(=O)[C@H](CC(=O)O)NC(=O)[C@H](CC(C)C)NC(=O)[C@H](CO)NC(=O)[C@H](CC(C)C)NC(=O)[C@@H](NC(=O)[C@@H](N)[C@@H](C)CC)C(C)C)C(C)C)[C@@H](C)CC)C(=O)N[C@@H](CCCCN)C(=O)N[C@H](C(=O)N[C@@H](CC(C)C)C(=O)N[C@@H](CC(C)C)C(=O)N[C@@H](CCC(=O)O)C(=O)N[C@@H](CCC(N)=O)C(=O)N[C@@H](CCC(=O)O)C(=O)N[C@@H](CCCCN)C(=O)N[C@@H](CCC(N)=O)C(=O)N[C@@H](CCCCN)C(=O)N[C@@H](CCCCN)C(=O)N[C@@H](CCC(N)=O)C(=O)N[C@@H](CCCNC(=N)N)C(=O)N[C@@H](CCC(=O)O)C(=O)N[C@@H](CCC(N)=O)C(=O)N[C@@H](C)C(=O)N[C@@H](CCC(=O)O)C(=O)N[C@H](C(=O)N[C@@H](CC(N)=O)C(=O)N[C@@H](CCCCN)C(=O)N[C@@H](CCC(N)=O)C(=O)N[C@H](C(=O)N[C@@H](CC(C)C)C(=O)N[C@@H](C)C(=O)N[C@@H](CCC(N)=O)C(=O)N[C@H](C(N)=O)C(C)C)[C@@H](C)CC)[C@@H](C)O)[C@@H](C)CC)C(=O)O
Molecule B6 came in with an EC50 [nM], 0% HSA of 0.02 nM.
